In patent US20250059271A1 (BARRELMAN BIOSCIENCES, published 2025) one finds OD data, which are given here for three molecules.

T1: dProgastrin-SUMO protein (dog, UniProt P01353 22-104)
T1 construct: Unknown whether the listing entry 103 holds the tag; also called dProg-Sumo protein; dog progastrin His-SUMO protein; not shown: N-terminal His-SUMO tag
T1 sequence: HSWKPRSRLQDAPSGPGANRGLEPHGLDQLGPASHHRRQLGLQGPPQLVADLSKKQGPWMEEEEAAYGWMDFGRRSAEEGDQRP

B1: dProg-2-D6 mAb (antibody, V domains shown)
VH: QSVKESEGGLFKPTEPLTLTCTVSGFSLSSDNMGWVRQTPGKQLEWIGWIGSSGSAYYARWAKSRSTITRNTNENTVTLKMTSLTAADTATYFCARSGWGSFDIWGPGTLVTVSS
VL: AQVLTQTPSPVSAAVGSTVTISCQSSQSVYSNNRLAWFQQKPGQPPKLLIYLASTLASGVPSRFKGSGSGTQFTLTISEVQCDDAATYYCQGYYSGYIFGFGGGTEVVVKG
notes: Recombinant rabbit monoclonal antibody; also called D6 mAb (C terminus); dprogastrin-2_D6
B2: dProg-2-F4 mAb (antibody, V domains shown)
VH: QSVEESRGGLFKPTEPLTLTCTASGFTISSYHMGWVRQTPGKQLEWIGWIGSSGATYYASWATSRSTITRNTNDNTVTLKMTSLTAADTATYFCARSGWGSFDIWGPGALVTVSS
VL: AQVLTQTPASVSAAVGGTVTINCQSSQSVYNNDRLAWFQQKPGQPPKLLIYLASTLASGVPSRFKGSGSGTQFTLTIGEVQCDDAATYYCQSYYNGYIFGFGGGTEVVVKG
notes: Recombinant rabbit monoclonal antibody; same entries as dProg-2-A3; also called dprogastrin-2_F4
B3: dProg-2-A3 mAb (antibody, V domains shown)
VH: QSVEESRGGLFKPTEPLTLTCTASGFTISSYHMGWVRQTPGKQLEWIGWIGSSGATYYASWATSRSTITRNTNDNTVTLKMTSLTAADTATYFCARSGWGSFDIWGPGALVTVSS
VL: AQVLTQTPASVSAAVGGTVTINCQSSQSVYNNDRLAWFQQKPGQPPKLLIYLASTLASGVPSRFKGSGSGTQFTLTIGEVQCDDAATYYCQSYYNGYIFGFGGGTEVVVKG
notes: Recombinant rabbit monoclonal antibody; same entries as dProg-2-F4; Biotinylated when used for detection; also called dprogastrin-2_A3 mAb

The target of this assay is T1, dProgastrin-SUMO protein. The assay is described as follows: ELISA; supernatant 1:2000 on 2 ug/ml dProgastrin-Sumo. On the procedure:
Deep well ELISA reading of 46 different monoclonal antibodies against 2 μg/ml dProgastrin-Sumo protein antigen versus 2 μg/ml anti rabbit antibodies. Supernatants containing the antibodies were diluted at 1:2000. […] Monoclonal antibodies with strong specificities against the dProgastrin C terminus at low concentrations include the D6 mAb, A3 mAb, and F4 mAb, among others.
B1: the OD was 2.02 OD.
B2: the OD is 1.99 OD.
The figure for B3 is 2.19 OD.
